According to patent US20090221008A1 (Human Genome Sciences, published 2009):

Key:
[1] = biological target: T1, soluble form of Neutrokine-alpha (amino acids 134 to 285 of SEQ ID NO:2) (human, UniProt Q9Y275 134-285); assay: summary of Example 10
T1 construct: also called rNeutrokine-alpha; soluble Neutrokine-alpha

[2] = biological target: T2, membrane-bound form of Neutrokine-alpha (human, UniProt Q9Y275 1-285); assay: summary of Example 10
T2 construct: Endogenous type II membrane protein on THP-1 cells, monocytes and myeloid cell lines; also called Neutrokine-alpha on the surface of THP-1 cells; cell surface Neutrokine-alpha

[3] = biological target: T3, peptide comprising amino acid residues Val-227 to Asn-242 of SEQ ID NO:2 (human); assay: epitope mapping with peptides
T3 peptide: VTLFRCIQNMPETLPN

Measured: binding result

T2 sequence (Q9Y275 whole entry): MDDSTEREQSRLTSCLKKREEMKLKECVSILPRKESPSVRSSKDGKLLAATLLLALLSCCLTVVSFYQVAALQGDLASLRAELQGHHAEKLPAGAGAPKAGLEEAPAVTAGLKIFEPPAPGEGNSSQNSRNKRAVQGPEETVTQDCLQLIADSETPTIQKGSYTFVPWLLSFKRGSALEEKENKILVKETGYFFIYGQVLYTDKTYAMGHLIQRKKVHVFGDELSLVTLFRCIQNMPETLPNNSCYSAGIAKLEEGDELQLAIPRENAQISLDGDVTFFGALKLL
T1 sequence (Q9Y275 134-285): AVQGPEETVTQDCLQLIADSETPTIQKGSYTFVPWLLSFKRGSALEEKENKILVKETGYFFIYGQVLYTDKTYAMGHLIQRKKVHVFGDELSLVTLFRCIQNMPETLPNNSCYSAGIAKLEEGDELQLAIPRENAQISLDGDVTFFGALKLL

B1: 15C10 (antibody, human IgG1, V domains shown)
VH: QVQLQQSGAELARPGASVKMSCRASGYTFTTYTMHWVKQRPGQGLEWIGYIIPRNTYTTFNQKFKNKATLTADKSSNTAYMQLSSLTSEDSAVYYCARHYGGGYWFFDVWGAGTTVTVSS
VL: ELVMTQTPASLAVSLGQRATISCRGSESVDSYGNSFMHWYQQKPGQPPKLLIYRASNLESGIPARFSGSGSRTDFTLTIYPVEADDVATYYCQQSNDDPMYTFGGGTKLEIKR
notes: Murine monoclonal antibody; hybridoma ATCC PTA-1158; A chimeric form with human IgG1/kappa was deposited as ATCC PTA-3794; also called anti-Neutrokine-alpha antibody 15C10
binds: all assays above
